Reference: patent publication US8003854B2, “GRG32: a novel EPSP synthase gene conferring herbicide resistance” (Athenix Corp., priority 2006, dated 2011)

Tested on: E. coli cells
Test: Glyphosate screen: growth of pRSF1b clones on M63+ plates with glyphosate
Format: cell-based
Settings: two days at 37° C.
Experimental: The pRSF1b clones were plated onto M63+ plates containing antibiotic and either 0 mM or 50 mM glyphosate. Growth was scored after two days growth at 37° C.

B1: GRG32: glyphosate-resistant EPSP synthase; predicted translation product of grg32 (SEQ ID NO:2), expressed from clone pAX1950 in pRSF1b (protein)
chain: MTASASWTARKGQPLQGSLTIPGDKSVSHRAVMFAALADGVSHIDGFLEGEDTRATAAIFSQMGVRIETPSPSQRIVHGVGVDGLQAPAGPLDCGNAGTGMRLLAGLLAAQPFDAVMVGDESLSRRPMRRVTGPLAQMGAKIDTEADGTPPLRVHGGQPLHGIDFASPVASAQVKSAVLLAGLYAQGETSVTEPHPTRDYSERMLRAFGVEIEFSPGKARLRGGQRLRATDIAVPADFSSAAFFLVAASIIPGSALTLRQVGLNPRRTGLLAALRLMGADIREENHAEQGGEAVADLVVRHAPLHGAEIPEALVPDMIDEFPALFVAAAAAQGNTIVRGAAELRVKESDRLAAMATGLRSLGVQVDETEDGATIHGGHELGSGTIESHGDHRIAMAFAIAGQLSSGEVRINDIANVATSFPNFDGIARTAGFNLG
modifications: Isolated from soil sample
resistance to 50 mM glyphosate in E. coli cells: confer resistance
